Data as given in the DeepSol protein solubility set.

Experiment: soluble on expression in E. coli; label from the status in PepcDB or PDB records
For “MNAAIHPRPAAERAPSYYAATLNEETDYPTLLGAVTVDIAIIGGGFTGVATAVELAERGYKVALVETHRIGWGASGRNGGQVTGSLSGDAAMHKQMRQWLGAEVEDFIWHLRWRGHEIIRQRVEKYGIACDLRHGHLHAAMKASHMGELQASYEEAVRRGMGDQVVLLDKAGVQAHLETELYCGALKNTRNMHLHPLNLCIGEARAAAGLGALIFEHSEVLDIVHGPRPAVITREGRIEAQQILLAGDVYHKLERRQLKGMIFPAMGGIVTTRPLGELAREINPQGLAVYDCRFVLDYYRPTADGRLLFGGGANYSGRDSRDITAELRPCIERTFPRLKGVEIEFQWSCAMGIVMNRIPQLGKLSDNVWYCQGYSGHGVATSHIMGEIMAKAMSGSLEQFDTFARCKHLRVPLGDLFGNPMLAAGMWYYQLMEKLRLEHHHHHH”, the “soluble on expression in E. coli” value was “not soluble”. For “MNADTADEEITKLLEFLIEQTKDAFEPMRALAVFESFGQLEEDPLDRKTYHYRFHQKIAPNMDSWNNYSIESRIRLMFALAGRVRDNFLESIQSQGTVELDEKNRICEYISNDGTLTLKGDHSDSARWARRITSTTNPTKSAAFAEKFMNFLVEKTKNVVEPVSVGGIYEEFSQIDGFGLSPAAYRTRFHINIVPEINEWNSYSIEERIRLLMALGALVPEDFLERIEAEGTVDLDEKGRILKYSSNDGNLNLDKRNIATANRRNSTAAHRKRSLDRDSESGSAKNARAVKSEPKSKPQSDLHYSSESDTDDVEFVESLPGKPKLEPIDYDYDQYFNRDVSYNNYDQEEVENRNVRLSIASSMPSLESNVIKLNDFLKEVRKFLCFLEISELDELKHQIKESVVQTAGANENLEISDLCTLLDAFFFSINQKTRSTIPNDSTMPVNVFLIKFKCFLLGMESPEFLDLQEKVQRKLDESDITEKILQLSDIQHAVQYLFFSVSH”, the “soluble on expression in E. coli” value was “not soluble”. For “MNAKAVKEVLKAHVGRAYAPYSGFPVVALVEAEGEVFLGVNVENASFPLSQCAERNAVAAMVLAGKRRLERVHVYSPKGPIPPCGGCRQVLMEFGGPEVEVVLHGPEEEVRTTLGALLPLAFRL”, the “soluble on expression in E. coli” value was “soluble”. With “MNAQEFKEKKTETTGAHHAQRLGIAAGMTVQEVGWDEDCDSTISEAIEDILGEELLDEETDEACDVVLLWWRSDDGDLVDGLVDSIRPLADNGRIWLLTPGAGKQGALDPGEISESAQLAGLVQTKAERLGAWQGSCLVQRGNKQ” the “soluble on expression in E. coli” value was “not soluble”. In the case of “MNCRGHETRQRIVRDFEVQPKAHIKLLANQQKHSDAGATIEDEYYVFIAESKIDGKKEVIQCCMGAARDFLELINHKGLPLFNPLVGDSHVNNRQEYDNTGSGNL”, the “soluble on expression in E. coli” value is reported as “not soluble”. For “MNDDRATAFNALKNKTVCVQGDGNSRQFYHALVEILSNHSSAIPVNKNGNDFCNAPFAQCPQDTYYFDLVDKSDNLSVKLYWRWAPEFSDIECPMKVPSGFTPGSNYSFPSGPDTLSCDINIMDAGQWELFEKDANVTTAGYSQGVSNLSKCFSSDKSAKYFWIAAYALTPEQLQIHLPYNNTDVERINEVATQGLNSTACVLNGYDVTVNAFNDTKEATTDGIHYLGWINEQVVQLFFNAVTNSSAPTVPSSNVSVTSPNVQLGQVPNLNPSTTNSFLPVQTIVTVPSSSATSASSGLNFGGSSQGGGSGIPQL”, the “soluble on expression in E. coli” value was “not soluble”. For “MNDEEKPCIENILSAAEELEKLGYEPVIIADASLRHEIDDKEQFRKLLEEGKFQQVPSGTSADHFILKMAEEEDAKILSNDVFRDYKDEFQDINSRRIPYTFREDKILIGTSGKPKKVKNILQKICNEALEHHHHHH”, the “soluble on expression in E. coli” value was “not soluble”. In the case of “MNDFNTAFANIDEKAIPNDEKGAANGVATLNSSGKLAQMPSASDVGALPITGGEMQGALKLKANQYGGSGPADEKYALDCQNSNIVNVNRILTADPAGSASEGWGFQREDDPDAYDVIWASNGTLYFTPGFKYNTPPYPANQRVLATTDNIALTNYLRQEYNKLKESEGTPTLNDIINGFGFCYNDSSNGAGLDGTYLTVSGMLDNKYRLQLLGQYNGSNWLAYRTRNGDEQSWNPWHKVLTDNINAAISARHQYTSSSYPQIYGNGILQLGGDSRNEYGVVLRSNGTDEANAFRPSVNAGTTGHLYLGVANQKWRAVFAQNGTIQTSDRNAKHDITDLDPEKITAFIMGLKPSSYVFNDADSGRTHWGLISQDIEELFPQLGMTSMDFAGFIKSPKTEDYYEDVPETVTDEETGEEKTVTRKELKTRTVEGEYIYSLRYDEFLEHHHHHH”, the “soluble on expression in E. coli” value is reported as “soluble”. In the case of “MNDFSLELPVRTNKPRETGQSILIDNGYPLQFFKDAIAGASDYIDFVKFGWGTSLLTKDLEEKISTLKEHDITFFFGGTLFEKYVSQKKVNEFHRYCTYFGCEYIEISNGTLPMTNKEKAAYIADFSDEFLVLSEVGSKDAELASRQSSEEWLEYIVEDMEAGAEKVITEARESGTGGICSSSGDVRFQIVDDIISSDIDINRLIFEAPNKTLQQGFIQKIGPNVNLANIPFHDAIALETLRLGLRSDTFFL”, the “soluble on expression in E. coli” value is reported as “soluble”. In the case of “MNDSAPRRVRVRAPELIGKGGWLNTGDKQYTLADLRGRIVVLDFWTFCCINCLHVLDELRELEEKHRDTVVIIGVHSPKFVHEAEHQAVVDAVERYGVEHPVLDDPELATWKQYAVRAWPTLVVIDPEGYVVAQHAGEGHAHAIAALVAELEAEHEAKGTLRRGDGPYVAPEPEPTVLRFPGKALLLPSGNFLVSDTTRHQLVELAADGESVVRRIGSGIRGFADGPADAASFSEPQGMTLLDEDVVVVADTVNHALRRLDLATGEVTTLAGTGRQWWQGSPASGPAREVDLSSPWDVAVFGGRVWIAMAGGAPAVDVRPGGGDGRGRGGHDERGAGRRTGLEHHHHHH”, the “soluble on expression in E. coli” value is reported as “soluble”. In the case of “MNEFEDLLNSVSQVETGDVVSAEVLTVDATQANVAISGTGVEGVLTLRELTNDRDADINDFVKVGEVLDVLVLRQVVGKDTDTVTYLVSKKRLEARKAWDKLVGREEEVVTVKGTRAVKGGLSVEFEGVRGFIPASMLDTRFVRNAERFVGQEFDTKIKEVNAKENRFILSRREVVEAATAAARAEVFGKLAVGDVVTGKVARITSFGAFVDLGGVDGLVHLTELSHERNVSPKSVVTVGEEIEVKILDLNEEEGRVSLSLKATVPGPWDGVEQKLAKGDVVEGTVKRLTDFGAFVEVLPGIDGLVHVSQISHKRIENPKEALKVGQEVQVKVLEVNADAERVSLSIKALEERPAQEEGQKEEKRAARPRRPRRQEKRDFELPETQTGFSMADLFGDIELLEHHHHHH”, the “soluble on expression in E. coli” value is reported as “soluble”. With “MNEKKERIIKTSIRLFAKKGFAATTIQEIASECGISKGAFYLHFKSKEALLLSACEYYIGMSMNKMKNIEEDLAGKPPKEVLKKQIGAQFEDFRDHKDFIVLLLTENIIPENQEIKQYFYKVTMETDKLYRNALLVSYGEGIERYVADLSIMARGIVHSYMNVMVFNGELNIDAEEISAFIIERLDDLVQGLSRSALNPIVSKDIFNPMPAGKDQLLEDIQKVKENSTLPEDITVSLDVIEEELTQDKPRKPIIKGMLSNLAGTNDKEVERLRALILSLSQFDHKKSSL” the “soluble on expression in E. coli” value was “not soluble”. In the case of “MNERDIICAGCGVKIQTESKEMLGYTPPSALKRDVIICQRCFRMQHYNEVQDVSLTDDDFLKILHTIGERKALIVKLVDIFDFNGSWLPGLHRFVGGNDVLLIGNKVDLLPKSVNRNRMINWMRKSAKDLGLKPIDVALISGEKGIGVKEVASLIDRLRKGKDVYVVGATNVGKSTFINKMIQIFGGDEEQMITTSHFPGTTLDMIDIPLDDGKTLYDTPGIINHHQMAHYVAKNELKLITPKKEIKPKVFQLNEEQTLFFGGLARFDFVKGERTSFVCYVSNDLFIHRTKLEKADELYEKRLGDVLTPPEDPQHLPSLVKHEFTIRVQKVDVVISGLGWVTVNGTNVKVCAYAPEGVGVSIRESLILEHHHHHH”, the “soluble on expression in E. coli” value is reported as “soluble”. For “MNERIFRENTRPVQVGNLTIGGSEELTIQSMTTTKTHDVEATVAEIHRLEEVGCQIVRVACPDERAANALSAIKKRIHIPLVADIHFDYRLALKAIDAGVDKIRINPGNIGRRDRVEKVVNAAKAKNIPIRIGVNAGSLEKKIIQKYGYPTAEGMVESALAHIKILEDLDFYDIIVSLKASDVNLAIEAYDKASRAFNYPLHLGITESGTQFAGGIKSAAGLGAILSLGIGNTLRVSLSADPVEEIKVAREVLKSFGLSSNAAMLISCPTCGRIEIDLIRIANEVENYIATIKAPIKVAVLGCAVNGPGEAREADIGIAGSNGEGLLFRHGKIIRKVPEAIMVEELKKEIDILAEEYFEKKTDLESLR”, the “soluble on expression in E. coli” value was “not soluble”. With “MNFHVMLTSSHETSFNFVVLLRANSKMKQQRNACRSCRLKECIKVGMNPRAVQGDIDTASTSSASPNLVSVEMHPYTNFREVECQTEVSTISSHPTSPSTLPFVSSGSSICSVSSSCSSVSTVYSNCLAMLPPNPSLPKYDYLLASLSRIFERVDEHAPEPLPNTYSFEHAFYNPHLICNRTKLTPTGERIATLPEVLQDFRRIFVLFTDVLSILPEFSRLDESDRMVLAKSRFSFFYWWLTCCWTAKVGCPGVCYANGAYHPSDKRQQAFPDVKGVTELSVETVSKPLANINITDAEMLVGSVFAIFYEYPLPPKVSYASTHILNEARDLYTQCMITVSPYSQLEAKSASRLAEISLIFSSITNLKYLTSDNIELSDVLHVMEVDQLITEAFDVHRPME” the “soluble on expression in E. coli” value was “not soluble”. With “MNFLSEQLLAHLNKEQQEAVRTTEGPLLIMAGAGSGKTRVLTHRIAYLMAEKHVAPWNILAITFTNKAAREMRERVQSLLGGAAEDVWISTFHSMCVRILRRDIDRIGINRNFSILDPTDQLSVMKTILKEKNIDPKKFEPRTILGTISAAKNELLPPEQFAKRASTYYEKVVSDVYQEYQQRLLRNHSLDFDDLIMTTIQLFDRVPDVLHYYQYKFQYIHIDEYQDTNRAQYTLVKKLAERFQNICAVGDADQSIYRWRGADIQNILSFERDYPNAKVILLEQNYRSTKRILQAANEVIEHNVNRKPKRIWTENPEGKPILYYEAMNEADEAQFVAGRIREAVERGERRYRDFAVLYRTNAQSRVMEEMLLKANIPYQIVGGLKFYDRKEIKDILAYLRVIANPDDDLSLLRIINVPKRGIGASTIDKLVRYAADHELSLFEALGELEMIGLGAKAAGALAAFRSQLEQWTQLQEYVSVTELVEEVLDKSGYREMLKAERTIEAQSRLENLDEFLSVTKHFENVSDDKSLIAFLTDLALISDLDELDGTEQAAEGDAVMLMTLHAAKGLEFPVVFLIGMEEGIFPHNRSLEDDDEMEEERRLAYVGITRAEEELVLTSAQMRTLFGNIQMDPPSRFLNEIPAHLLETASRRQAGASRPAVSRPQASGAVGSWKVGDRANHRKWGIGTVVSVRGGGDDQELDIAFPSPIGIKRLLAKFAPIEKV” the “soluble on expression in E. coli” value was “soluble”. In the case of “MNGKVIIVTGGSSGMGKYMAKRFVSDGANVVITGRRAEALEEAKREIAAPDGGKVLTIPMDVRNPEQVAHMVERTDAEFGRIDALINNAAGNFICPAEKLSINGWNSVINIVLNGTFYCSREVGNYWIQRGLKGNIINIVATYAWHAGAGVIHSASAKAGVLAMTRTLAVEWGKKYGFRVNAIAPGPIERTGGAERLWESEEAERMTLESVPLGRLGTPEEIAAVASFLLSDEAAYINGACITVDGGQWLNRRPF”, the “soluble on expression in E. coli” value is reported as “soluble”. With “MNHLPVVGEDYVEIPDGRPFAPLAGKIEVVEIFGYTCPHCAHFDSKLQAWGARQAKDVRFTLVPAVFGGVWDPFARAYLAADVLGVAKRSHTAMFEAIHEKGSVPIQNVGPDELAVFYAGYGVQPDRFVATFNGPEVEKRFQAARAYALKVRPVGTPTIVVNGRYMVTGHDFEDTLRITDYLVSRERAASHGR” the “soluble on expression in E. coli” value was “soluble”. For “MNHMKKNILFDGLRSVARIGETAFVAARAGIKYATEKPSNAKLMRETFESLGSTYIKLGQFIASTPSLFPREYVEEFQGCLDQTPTLPFSYIQEVLAEEFEGRDLNQIFASIDETPLASASIAQVHAARLTTGEDVVIKVQKPGVETILYTDLNVVHWATKMLEKAIPKVKFASLSEIVEEIKIRMVREVDFIEEAQNLDDFVEYLKITNNQAATAPKVYHQFSTRRILTMERLYGVSLTDFDIVKKFAKDPSQVLITAMNTWFGSLMLCKSFHADLHAGNLMLLEDGRIGFIDFGIVGQLNPQVWTACLAFMDALQKTDYTAMAENMLKMGMTKTQIDTQVLAQDLERLFSGVLLADPQEILASKPSDLNDIMLDMVAVGERHGIKFPRDFALLFKQMLYFDRFMRVLAPYTDIYADQRLKMVQTIEPQSLLKH”, the “soluble on expression in E. coli” value was “not soluble”.
